From patent US20240279345A1, “ALPHA 5 BETA 1 INTEGRIN BINDING AGENTS AND USES THEREOF” (PASITHEA THERAPEUTICS CORP., priority 2021, published 2024)

What was measured:
[1] = target: T1, binding of α5β1 integrin to fibronectin (FN) (Homo sapiens, UniProt P05556+P08648); test: Quantitative FN inhibition (FN-blocking) assay in ELISA format; type: biochemical; details: by ELISA
T1 construct: purchased Acro Biosystems IT1-H52W5
From the text: To determine whether the 9 unique hybridoma clones selected as described in Example 4 were able to inhibit the binding of α5β1 integrin to fibronectin (FN), the antibodies were first purified from hybridoma supernatants by Protein A chromatography, protein concentrations measured by BCA assay (Pierce™ BCA Protein Assay Kit; Thermo Fisher Scientific, Waltham, MA, cat. no. 23225) and then tested in a quantitative FN inhibition assay in an ELISA format.
Immulon4 HBX ELISA 96-well plates were coated with FN by incubation overnight at 4° C. with 2.5 μg/mL human FN (R&D Systems, Minneapolis, MN 55413, cat. no. 1918-FN) in 1×PBS (0.01M phosphate buffer and 0.154M NaCl, pH 7.4). Plates were then washed 3 times with Wash Buffer (1× Tris Buffered Saline containing 0.05% Tween20), blocked with 2% BSA in 1×TBS for 2 hours at room temperature (RT). Antibodies were diluted in Standard Diluent (2% BSA, 1×TBS, 0.05% Tween20) containing 0.1 μg/mL rh-α5β1-6×His tagged protein (Acro Biosystems, Newark, DE, cat. no. IT1-H52W5), to generate an 11 point 1:3 antibody dilution series ranging from 10,000 ng/mL to 0.17 ng/mL. Isotype control antibody (Control Ab; Ms IgG2a EMD Millipore Corp, Billerica, MA, cat. no. PP102) was used to normalize data across different assay runs. For the assays, 100 uL of the antibody dilution series/His-tagged-α5β1 mixture was added to the wells after the blocking solution was removed and wells were washed 3 times. Following 1 hour at RT, the wells were washed 3 times, incubated with biotinylated Anti-6×His-Tag Ab (Invitrogen, Carlsbad, CA, cat. no. MAI-21315-BTIN) at 1:1000 in Standard Diluent for 1 hour, washed 3 times, incubated for 30 minutes with poly-HRP Streptavidin (Thermo Fisher Scientific, Waltham, MA, cat. no. N200), washed 4 times, incubated with TMB substrate (Thermo Fisher Scientific, Waltham, MA, cat. no. N301) for 2-5 minutes, followed by addition of ELISA Stop Solution (Invitrogen, Carlsbad, CA, cat. no. SS04). Absorbance 450 nm was measured. Data points were normalized to the isotype Control Ab values at each concentration and reported as % Absorbance 450 nm normalized to Control Ab. Non-linear regression analysis was used to fit curves (4-parameter) to the data using GraphPad Prism version 9.0.2 (GraphPad Software, LLC, San Diego, CA).
Freeze-thaw stability was tested on a small aliquot of each chimera antibody by overnight storage at −80° C. followed by thaw on ice, repeated three times. […] IC50s were calculated by non-linear regression analysis curve-fitting (4-parameter) of the ELISA data (FIG. 5) using GraphPad Prism version 9.0.2 (GraphPad Software, LLC, San Diego, CA). […]

[2] = target: rh-α5β1 protein bound to human FN protein (Homo sapiens, UniProt P05556+P08648); test: SPR dissociation of rh-α5β1 bound to FN; type: biochemical; details: 1 μM antibody injected for 250s after 400 nM rh-α5β1; 25° C.
Method: Surface Plasmon Resonance (SPR) and a cell-based assay were used to test the effect of the antibodies on the dissociation of rh-α5β1 protein bound to human FN protein. The antibodies tested are representatives of the two groups of antibodies identified in Example 6 that define two different epitope binding groups and have distinct ligand blocking properties. […] In addition, the small molecule antagonist cyclic RGD (cRGD; Creative-Peptides, Shirley, New York, 11967, cat. no. CP22175) was tested as a comparator that inhibits α5β1 integrin binding to FN by competing at the ligand binding pocket.
Description of the SPR method used: FN protein dissolved in water was manually printed onto the bare gold-coated (thickness 47 nm) PlexArray Nanocapture Sensor Chip (Plexera Bioscience, Seattle, WA) at 40% humidity. The chip was incubated in 80% humidity at 4° C. for overnight and rinsed with 10×PBST (0.1M phosphate buffer, 1.54M NaCl, pH7.4, 0.5% Tween20) for 10 minutes (min), 1×PBST (0.01M phosphate buffer pH7.4, 0.154M NaCl, 0.05% Tween20) for 10 min, and deionized water twice for 10 min. The chip was then blocked with 5% (w/v) non-fat milk in water overnight, and washed with 10×PBST for 10 min, 1×PBST for 10 min, and deionized water twice for 10 min before being dried under a stream of nitrogen prior to use. SPR measurements were performed using PlexArray HT (Plexera Bioscience, Seattle, WA), a high-throughput surface plasmon resonance imaging (SPRi) platform. Collimated light (660 nm) passes through the coupling prism, reflects off the SPR-active gold surface, and is received by the CCD camera. Buffers and samples were injected by a non-pulsatile piston pump into the 30 μL flow cell that was mounted on the coupling prim. […] SPR binding responses (a.u.) were recorded and plotted over time.

T1 sequence (P08648 42-894 limits assumed): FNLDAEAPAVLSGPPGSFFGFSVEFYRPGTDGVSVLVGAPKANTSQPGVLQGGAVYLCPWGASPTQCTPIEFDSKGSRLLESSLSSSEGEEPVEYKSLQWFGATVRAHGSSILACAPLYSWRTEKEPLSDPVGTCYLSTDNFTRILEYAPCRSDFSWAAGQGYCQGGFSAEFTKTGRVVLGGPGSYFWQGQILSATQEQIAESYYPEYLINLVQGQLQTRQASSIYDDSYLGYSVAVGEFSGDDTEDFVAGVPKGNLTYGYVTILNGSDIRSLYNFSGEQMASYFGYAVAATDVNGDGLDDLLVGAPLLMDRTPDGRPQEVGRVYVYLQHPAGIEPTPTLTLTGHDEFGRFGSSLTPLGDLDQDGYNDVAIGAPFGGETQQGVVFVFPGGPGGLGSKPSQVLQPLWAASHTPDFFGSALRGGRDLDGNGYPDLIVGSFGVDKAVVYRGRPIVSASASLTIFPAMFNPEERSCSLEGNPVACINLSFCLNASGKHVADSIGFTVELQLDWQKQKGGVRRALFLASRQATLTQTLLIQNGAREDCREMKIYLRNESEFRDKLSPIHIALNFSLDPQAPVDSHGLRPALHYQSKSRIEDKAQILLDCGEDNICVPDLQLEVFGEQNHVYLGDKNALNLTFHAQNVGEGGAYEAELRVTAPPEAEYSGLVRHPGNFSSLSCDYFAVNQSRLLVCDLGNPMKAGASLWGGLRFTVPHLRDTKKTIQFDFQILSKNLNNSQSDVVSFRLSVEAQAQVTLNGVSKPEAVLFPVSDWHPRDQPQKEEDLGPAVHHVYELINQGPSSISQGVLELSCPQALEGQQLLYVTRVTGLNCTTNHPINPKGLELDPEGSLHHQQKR
T1 sequence (P08648 895-995 limits assumed): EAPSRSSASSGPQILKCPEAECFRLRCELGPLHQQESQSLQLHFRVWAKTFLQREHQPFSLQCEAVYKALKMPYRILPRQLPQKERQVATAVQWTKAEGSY
T1 sequence (P05556 21-728 limits assumed): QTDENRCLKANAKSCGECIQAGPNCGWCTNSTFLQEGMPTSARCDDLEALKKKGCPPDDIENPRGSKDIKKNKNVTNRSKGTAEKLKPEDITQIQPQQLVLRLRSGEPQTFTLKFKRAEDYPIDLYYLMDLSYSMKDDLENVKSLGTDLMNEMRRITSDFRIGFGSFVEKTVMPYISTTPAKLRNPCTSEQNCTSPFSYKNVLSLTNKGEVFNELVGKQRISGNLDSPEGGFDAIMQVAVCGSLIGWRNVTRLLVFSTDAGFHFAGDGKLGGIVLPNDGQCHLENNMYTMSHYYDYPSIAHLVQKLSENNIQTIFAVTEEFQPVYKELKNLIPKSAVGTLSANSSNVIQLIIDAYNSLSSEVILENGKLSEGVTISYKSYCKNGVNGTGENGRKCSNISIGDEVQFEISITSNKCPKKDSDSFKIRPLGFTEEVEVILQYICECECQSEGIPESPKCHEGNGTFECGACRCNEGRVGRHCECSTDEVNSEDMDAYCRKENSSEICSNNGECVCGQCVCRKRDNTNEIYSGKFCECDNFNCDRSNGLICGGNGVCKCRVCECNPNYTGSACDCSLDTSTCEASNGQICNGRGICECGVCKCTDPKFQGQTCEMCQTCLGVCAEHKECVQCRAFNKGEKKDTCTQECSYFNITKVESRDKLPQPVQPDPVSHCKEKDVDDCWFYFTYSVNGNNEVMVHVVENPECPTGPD
Chain of rh-α5β1 protein bound to human FN protein (P08648 42-894 limits assumed): as the sequence (P08648 42-894 limits assumed) above
Chain of rh-α5β1 protein bound to human FN protein (P08648 895-995 limits assumed): as the sequence (P08648 895-995 limits assumed) above
Chain of rh-α5β1 protein bound to human FN protein (P05556 21-728 limits assumed): as the sequence (P05556 21-728 limits assumed) above

class of FN binding blocker [1]	Molecule	effect on dissociation of rh-α5β1 protein bound to FN (SPR response) [2]
strong blockers of FN binding	A-15B08: anti-α5β1 antibody, VH SEQ ID NO:25, VL SEQ ID NO:26; tested as mouse hybridoma antibody and as human IgG4 chimera (antibody, V domains shown, A-15B08 VH Sequence; A-15B08 VL Sequence, tested as mouse hybridoma antibody and as human IgG4 chimera) VH: QVQLKESGPGLVAPSQSLSITCTISGFSLTSYGVHWVRQPPGKGLEWLVVIWSDGSTTYNSTLKSRLSISKDNSKSQVFFKMNSLQTDDTAMYYCARHYDYDGDWFAYWGQGTLVTVSA VL: QIVLTQSPAIMSASLGERVTMTCTASSRVSSNSLHWYQQKPGSSPKLWIYSTSNLASGVPARFSGSGSGTSYSLTISSMEAEDAATYYCHQYLRSPPTFGGGTKLEIK	rapid dissociation of the FN-α5β1 complex
partial blocker of FN binding	A2-7A05: anti-α5β1 antibody, VH SEQ ID NO:77, VL SEQ ID NO:78; tested as mouse hybridoma antibody and as human IgG4 chimera (antibody, V domains shown, A2-7A05 VH Sequence; A2-7A05 VL Sequence, tested as mouse hybridoma antibody and as human IgG4 chimera) VH: QVQLQQPGAELVKPGASVKLSCKASGYTFTIYWINWVKQRPGQGLEWIGKIYPGSISTDYNEKFKSKATLTVDTSSSTAYMQLSSLTSDDSAVYYCAITGTGGLAYWGQGTLVTVSA VL: ENVLTQSPAIMSASLGEKVTMTCRASSSVNYMYWYQQKSDASPKLWIYFTSSLAPGVPGRFSGSGSGNSYSLTISTMEGEDAATYYCQQFTTSPFTFGSGTKLEIK	partial dissociation at a slower rate
